We go through 47 sequences from the NTF2 design screens of Basanta et al. (2020).

This series can be described thus: protease stability score; higher = more stable; yeast display proteolysis, trypsin and chymotrypsin.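 Note: log10 excess protease needed over predicted unfolded state with 0 meaning unfolded.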
Sequence “DHEREAKHFVDDWVRALRTGDSKTIEELMDPNVTLRVGDQKLHGRSQNSDQVRRWKERVDTIDVKVRSINKTGDHMRVHVDVVMDINGEKDNKELVINFDKHNGRLIVKHASYG” showed a protease stability score of -0.113. On to “DEDDVRRVAEQIVQALEKGDEQRMMELADPNAKARVGEKDYHGREDLHKIVKELKDDFDHARVESVEVDGDKVVIHMVVKSNGKDRRMIIRFRVHNGKVTEMEFRTG”, for which the protease stability score is 1.75. Under “DEDLLKQLHTYLRAHETGDRSRLRKLMDPNAEVRIGNHELHGREEILTQQVEEAHKITQYFEIDSVEVRPNSIKVKAHVSMNVNGQPFRTEVEYDVRIRNGRIQEITYRLPEEFLREVNR” stands -0.229; under “DEDRAKSFMQAVVDNDPDKILKMMDENVRIEYGNKEIHGHEDLRKFWDKLKDQVDHYQVDRYSIHNGTVNVDAQMVVNGVRVRFTIVAELRNGKVTSVKYRVTNPRQERQLDELWG”, 1.23. As to “DEDEDKRIQEVLEQNDFETLSKQADENAKVQYGDTEVHGRRKAYEYLRRLKRSIDHIHYHSIHVHNGRAKMTAEAHFNGRKAVFIVVLQFENGRIRMVVFRATDSRIKKIIKEALN”, the protease stability score is 0.988. Under “DETNLKKVLDVLKDNDEKKLEELADEDAKNDIGNFDYRGRRQFEEAMRHRRKMIDSLEVKSVRADGDKAEIDMSAVINGREVKASQMVKVHNGRIKSISVRFTDPDKEREADKKAQ” stands 0.023; under “DEDDLVRQMVDRAEEAAQTGDEKKFANLFDPNARFRYGDKDVHGREEWEKRLDEERKRADRLHIKFDSVRVHGDKVDLHFTWRVVVNGESSERVVIIHAVKQGDRIVAKYVREG”, 0.611; under “DESKVNEIVQKFVNAVREGNENHLRSLMDKDVTLHVGDRTWHGREQVASFMAHVAKRVDRIRIVHIEIHGDKANVNVRFDVNGTEVQLTMDIRIKNGRIMKIHMSPEDEKKLQG”, 1.76. With “DEENSEAMKRWFNAMETGDPDKVKEQLDENAKIEVGDKRIHGRDQAREEVRKMLERWEIRIKIDEIDVHGEKVVVKFRQHNDRNGEPDNQTVVFIAIFDNGKATRWLLTTDG”, the protease stability score was found to be 0.289. As for “DDDDLKRITEFLKNEQKGNSEELRKLADPNATFQIGDKTIKGRDKFANEAKKRRDEMHFQYKSVHMRDHNGVAVFSVTWILDHNGKPEENTFTLQAKLTNGKIKMLRLQSRK”, the figure is -0.012; as for “EEEAHTHAEQWFRVLQTGDEERAMKMVDKNAQLQIGDKDIHGREDVRKYVHDRKNEQDVEIKRYSIEVSGNSFNVKIHVRMEHNGQPRTDVLDMKFEVSNGRLTKVSVQSNG”, 0.021. In the case of “DHSQLEIVIEWVKALQEGDPDKAKKNMDKNVKLDIGDKRLEGRDEVRKEMETMKKSARFDLHIDSYNVHGDHAELRVTFRNDHNGRPKKDRNTIRATAHNGRITYLSVEHTG”, the protease stability score was 0.708. With “DEKKVEKVVREALKAMINGDKDKVRKLLKPDVQFHAGDVEMHGVDQVVKYYEKIKRQGVEMHIKEVKVTGNEAEVKYDLRADGTEATVKAKVVVENEKVDHVTAELTKTYDDLVKKS”, the protease stability score was -0.107. As for “DQEEVEQAKKFVEAQKSGDPDQLNDLADPNVELEIGDQELHGREDLHDWANHQNKHMRMEVRDVKAQDKPNHVEVHIRFVINVNGKPRDTTVEVDFSAENGHIKKIKFQIDHHELRKLEK”, the figure is -0.154. As for “DEERMLKVAETVIRAVRNGNADKAVKYIDEGGEATFGDTKLKGPEHIYEYVKKFKDQGIEVHYKEEHKEGDKVTVHTQAHLGDATADFEVHYQVKGDKLDRMEVRMDKEQLKKFRDS”, the figure is -0.347; as for “EESLIRLATLFMRAMETGDPKQANDLVDPNARFKIGDSVINGRERFNEWLKDLKEEMSVHYRVEHMHAEGDRVEVDFVVVYNVDGRPQRMRVKLEADLSNGRMRNVTLRFPSEEEKKIKK”, 0.525; as for “DEEDLHNALNAWKAFNTGDPDRAVQLADPNVNVVIGDKHVHGREQLSHEIKRVRHESNVQVRHVNNDNQGEKAKVQAEMVDTQNGQPRTFTVDIDVRAHNGKLKEVKVQEQD”, -0.322. “DEHARRLVKKFIEAMKHGDPDKLMKLADPNVKFDIGDHQFKGSHEANKWLERMVRHMRFSLKVDSVKAHNGRVEVDAVFTFEVNGKPDQQRFTLDFHFNNGRVQNLTWDVDPRDWRKQLK” showed a protease stability score of 0.73.

On to “DEKKAQKLMKKAFKMIKDGNEDEVRKLGKPNVKYEYADQQYEGEDAVRVAVQIVKRVGAEDKTETQEVKGDTARAVFVYKKGDTEVQTTAEVIYKGDKMEEARVKLSDEVKKVVHQG”, for which the protease stability score stood at 0.124.

As to “DEELRKQAEEVMKAWQHGDEKTYMDLFDPNAKWEYGDDNITGRENMSDYMRKVRKEIRVHVQSVEVRAHNGRLEVVATEEREHNGRPDTVTVIMEAKAHNGKIQVVRVEERQ”, the protease stability score was determined as 0.404.

In turn, “DDEELQELVKVIQDNDKDRWRENIDKDARVRYGDKQWEGRNEVDKLMRELLEKADHIQFNSIHVQGNSIVVDVNINVNGKELDVIIEMEVRDGRIKHVKFQWRNEELHRIMDEILS” displayed a protease stability score of 0.879.

As for “DEKKAEDAARQMLEALRTGDPKRMVDHMDPNARALVGDTRYHGREEASKMVEHIRRRVDHVRVDNFRVRGNKLHLHAVFDSNGRRERVQIRADVHNGKIKVFEITSQ”, the protease stability score was found to be 0.342. “DEEAHELWKKWQEAFKTGDPEQLHEMADKDARLRIGNKEIHGREKAVKQLVDERKEMHIDYRIRSYKFEGNRLTFTAHANARVNGQPYRYTVKMQFSFSNGRLKELQIRIPEEVMQELRN” gave a protease stability score of 0.791. Under “DEQKDAERAIEALRVMLQGDDDSVRKMVDPNATLTVGDTEYKGREEFVKYARTLRRRADHFRIDTVHVEGDTAVMQAQVNVNGKTKTIRINVRAHNGRVVHVHVDPDQLKRIES” stands 0.831; under “DERAEELLQRWMDAQRTGNPDEFVKLLDPNARYVVGDKEIHGSEQFKTHWQRQQDEMNVKVDVEDVKFSGNKISVRFHIEVDVNGRPLTDTATATWDLHNGRIKRQVYHLDPEFLRQVDS”, 0.936; under “DEHDVRELLKALTTGNEDDMRKMLDKDVTANIGNFRVKGREQQLTLIRRMLERADHLSVTSFSSHNGNVEVDVQVTVDGRRIRYVIRAQAHNGKVNSVRMDVTDHSVEQTLRHLHS”, 1.36. “DKTHAETVRKLVERGNWEELARMADKDAHVNYGNKSVHGRERVESLLKRFSSRVDHVDLKDVDVQGDHVHMRYVAVFDGRRVDVSAVIFVDNGRIKSIHYRATDEEVKRRMDELLD” displayed a protease stability score of 1.33.

With “EEEDEKRIKSLLEHNDFTRFAELVDKDAHAVIGDKTIHGREEIKKEIEEFKKRIDHLEWKRVDVRNGKVSARMQVTINGRTLDVYMRADVENGHIHYVEIHARTEEAQRVLDEVLS”, the protease stability score amounted to 1.58.

“DEELAKHFERVVRENNPDELQKQFDEDARVSVGNKRYHGREKVNDAIKRFMTNADEIRIEDIEIHGETIKVVYRFRVDGQSARVVMVVNIKDGRVKEMKISATDPRDVKVLDEVME” gave a protease stability score of 1.7. As for “DEHAVRRLQEFARVLERGDESKAEQYLDPEVRITVGDREINGMKTFNNFLQEVSRQMRFSLQHVEARARNGKARIIMHFQVDHNGNPEQQRIDITASLHNGRMKRMHMRTDR”, the figure is 0.031.

The sequence “DDDAMRKAHEFYTAYNTNDEDTLSKQFDPNARIRYGDEVIHGREQLKKWMEEIQREMSVSVRVKSMKVRGDEIHIKFDMTVDINGNPLEFDAQAEFRFRNGKFIDFTLQIPEEAQKQEHG” had a protease stability score of 0.704. In the case of “DEEKNETAKQLQRIEETGNKDEVQEMLDKDADIHIGDKVVHGREEYARQVHRRRDEINVQIDEVHYKDEEGSVVVRYTAMQEVNGRPIKNSFQRVQHIDNGRVKHMHFKFSEEQERQMRG”, the protease stability score was -0.055. Under “DHDKQEFWNHLVEIFKSGNEDDWRKNFDPNAKWHIGDKRVHGREEAVEDFRRRREELRQNIESFTVDARGDKVTVHQVFVVEINGHPRRMSVNIRAKVHNGQIKEMDVRLSDEDKKKEKG” stands 0.478; under “DSEKMHEINKALKTNDPDKLEQLMDKDVRAKVGDKTFHGREEVVKMWRDLYKQADHVNVDRVDVQGEKIDATVRADFNGTSVDYKVHISASNGRIKHITVTVTDEERHRQLQSVLG”, 1.31; under “DETEIRLFHQFLRAIETNDEERAQQLADEDARYRYGNKEIDGMTQFQEDMDDKHKEARYSYSIDSVHDEPNRVVVEARAMVKINGKPTTYQVELHAHFHNGRMKKFTASVPEETLQSIRS”, 0.054.

As to “DDDKKAKNWMERMLHIFREGDEDSYKNNFDENAEINIGDKTYHGRDRVQRLFSEIKHNVDHLKIQFQDFSTHNGRWVLIFEYSRTHNGHTEQNVIVVNMEQHNGKVVVKSMREK”, the protease stability score was found to be 0.636. Under “EDRAQENLHELLKAIQQGDEDSVESLLDKDVKIQVGDKYIHGRENYAEHVRKTRQEIRVNYRIESYSVHNGRAKMTFRANRDDNGKPETWKAQATMEVDNGRITFIHRNKRG” stands -0.045; under “DETAKKHFEELMKVWKHGDFRRAQELLDPNVRVVIGDQQFHGREDVAKKIAEHLHRMEVEIKDYRVKNDGEKIHIEVDAVFERNGRPERRRYVAVYRVHNGRFKEMSQQEDK”, 1.05; under “DETAISVAKTMFEAMESNDPDEVRRQADPNATFVIGDKNYHGMETYAKEVKKRNDKIDVQLQDMDITDQGEDADIKQVAVFTHDGRPKKVVIHWDISVRNGRIKFVHADQRG”, -0.4.

As for “DETNVRSVERFVHALKQGDPDKLHRNADPNVKVQIGDKVIHGREELSKDQKRRNKSMRLSYKDYRNEDTNGNVIVHLTFTSERDGQPRENEYRAHITLNNGKIREVDMKSDG”, the protease stability score is -0.288. Under “DEKTAQDTAKEIVKYWEQGDFEKLNKNADKNVRIRYGDKDYSGRDNFQELQKKFREHVDHVEVHSVDVEGDKIRVVIMFVVNGKHMVMEFVVDYHNGHLKSVSVDARNPDQKKRADK” stands 0.46; under “DEEDADRILKLLKKNNFEELARNADPNVHVRIGDTRIHGREEVTSHMKRLTDRIDHVDWRSMSVTGDRVVVRAVYTVNGDRIDFEIEIQFHNGRVVSVRFQARDEDDKHKYRKAEK”, 0.428. In the case of “DQHAKRLFDEVVSAIKDGDPHQVKKQLDKNVRARVGDKTISGRETFAQQRKTERDEIEWDVEDYKADVNGDHIKVDMKVKSEHNGRPTSDKIDVDVQWHNGHVVRMEFKETR”, the protease stability score was -0.392.

On to “DEKRYKELADKAFKYIVNGNEEQAIKMLKPNVRYEYVDKEMKGEEAAKEIVQLMQKVGAKVETQEKEVHGDTMRAVFQYHDGDTTVQTTAEVVYKGDKVEKVRVEISEEVKKIVERG”, for which the protease stability score is -0.265. Under “DDEDRKKADEMLKALKHGDPDRVRELMDPNAKAVYGDKRIRGRDDFVEDMFRKQREIKIDMKIEEFRVNGNHAVFTVDVIEDKDGRPKRFKARVVITLHNGKIIDIKVEEEH” stands 1.25. Under “DEDHEAQRFFDHFEEVVQTGDPDQAKQLIDKNATAKYGDQEYHGWEDVHKHWLRLRRQADHIKFEVDDVRATNGRYEIQFVVIIDTNGNENTRRYRLQAQEDNGRLRVQNLTQQ” stands 1.49; under “DEHARSVMRQFVHALNTGDPDEASRQVDKNVKATYGDKSVHGRESVKEWLEKLVKRMRVEVDLKTVHAQGDTVTAKAHLTAEVNGRPFKVDVHIEATVQNGKIKELVVDFDEHFTEQVES”, 2.56.
